The text below walks through data of the supplement of paper PMC10126150.

± gives the standard deviation of the averaged measurements.

This data set has as its system ATP. In words: switch fluorescence ratio, 500 uM ATP over buffer (Cy3 cluster intensity, sum of 5 cycles each) (fold (ratio)); higher = stronger signal-on switching upon ATP binding; sequences stand for … in TCGTCGGCAGCGTCAGATGTGTATAAGAGACAGTTTTTTTTTTTTTTTTTTTTTTTTT…TC. Conditions: aptamer strand: ATP DNA aptamer (quencher-CACCTGGGGGAGTATTGCGGAGGAAGG + anchor), 100 nM annealed; ATP concentration: 500 uM. The method in brief: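 The fluorescence ratio divides summed target-cycle Cy3 intensity by summed buffer-cycle Cy3 intensity for each cluster and is averaged per switch-domain sequence. Cy3-labelled switching-strand clusters on a modified Illumina MiSeq flow-cell were annealed to 100 nM quencher-labelled ATP aptamer, then imaged in selection buffer and again after 15 min with 500 uM ATP at 22 °C. Five such cycles were run, with NaOH stripping and re-annealing between them, and clusters outside 100-1000 RFU were excluded.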
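Note: ATP exposure 15 min at 22 °C before imaging.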

Take CAATTTATAT: the switch fluorescence ratio was 0.994 ± 0.019.

On to GGTACGGATC, for which the switch fluorescence ratio came out at 1.03 ± 0.018.

Consider AGCATGTCTG, for which the switch fluorescence ratio stood at 0.986 ± 0.01.

Regarding AGATGGTAGG, the switch fluorescence ratio was determined as 0.986 ± 0.023.

For the sequence GGAACCTTTT, the switch fluorescence ratio amounted to 1.04 ± 0.041.

For CGCTTTTGGG, the switch fluorescence ratio was 0.999 ± 0.03.

Regarding CGATAACTGG, the switch fluorescence ratio was 1.05 ± 0.052.

As for TTTTCTGTCC, the switch fluorescence ratio turned out to be 1.03 ± 0.012.

Regarding TTTTCTTGGG, the switch fluorescence ratio was found to be 1.03 ± 0.071.

For GTTTGCGCAG, the switch fluorescence ratio was 1.02 ± 0.018.

As to GTTGAAAATT, the switch fluorescence ratio worked out at 0.99 ± 0.021.

On to AGGAATTTGT, for which the switch fluorescence ratio is 1.035 ± 0.0091.

Take GTTGAACGGT: the switch fluorescence ratio stood at 1.1 ± 0.053.

Regarding CTATAGTAGG, the switch fluorescence ratio was 0.9849 ± 0.0029.

On to TTAATAGTTG, for which the switch fluorescence ratio was found to be 0.97177 ± 0.00065.

For the sequence GTTATAGCGT, the switch fluorescence ratio stood at 0.963 ± 0.026.

Turning to GCTATTGTTG, the switch fluorescence ratio was 1.03 ± 0.021.

For the sequence ATACATCTAG, the switch fluorescence ratio was found to be 0.996 ± 0.044.

For the sequence GGCCTAATAG, the switch fluorescence ratio stood at 1 ± 0.034.

Consider AAGGAAGCCG, for which the switch fluorescence ratio was 1.06 ± 0.044.

Turning to TTCTAGGCGC, the switch fluorescence ratio was 0.9972 ± 0.0073.

On to TGGGTGATAG, for which the switch fluorescence ratio came to 0.99 ± 0.035.

In the case of CCGGTTAGG, the switch fluorescence ratio turned out to be 0.998 ± 0.045.

For AGATGCGGTA, the switch fluorescence ratio worked out at 1.01 ± 0.029.

In the case of TCGTTTATAT, the switch fluorescence ratio was 1.01 ± 0.04.

Consider GCAAGTAGGG, for which the switch fluorescence ratio worked out at 1.02 ± 0.019.

Consider AGGAGGCGCG, for which the switch fluorescence ratio came out at 1.05 ± 0.1.

In the case of GTTTATGGTT, the switch fluorescence ratio was 1 ± 0.022.

As to GTTTATTCGA, the switch fluorescence ratio is 0.989 ± 0.014.

Turning to GGGGGCAAGC, the switch fluorescence ratio stood at 1.25 ± 0.35.

In the case of ATCGCGACTA, the switch fluorescence ratio is 1.05 ± 0.036.

In the case of ATCGGGAGAT, the switch fluorescence ratio was 0.9833 ± 0.0076.

ATCGAGAGGT: the switch fluorescence ratio came out at 0.973 ± 0.019.

Regarding GGGGAGTCGG, the switch fluorescence ratio came out at 1.01 ± 0.047.

Turning to ATTCAGCCGC, the switch fluorescence ratio came out at 1.62 ± 0.083.

With TGCATACGGC, the switch fluorescence ratio came to 1.04 ± 0.07.

Regarding ATGATGCTTG, the switch fluorescence ratio amounted to 0.993 ± 0.045.

For ATATTTAACC, the switch fluorescence ratio is 1.02 ± 0.025.

Regarding CGTGCTTTTC, the switch fluorescence ratio came to 1.15 ± 0.22.

Regarding GACGGATGAC, the switch fluorescence ratio is 1.33 ± 0.15.

Regarding TGTGCGGGTT, the switch fluorescence ratio turned out to be 1.02 ± 0.02.

As for ATCGGGCTGT, the switch fluorescence ratio was determined as 1.03 ± 0.013.

For GGAAGGGTTT, the switch fluorescence ratio is 1.03 ± 0.061.

With CAAACCAACG, the switch fluorescence ratio amounted to 1.345 ± 0.0044.

Turning to TCGAAGAGTT, the switch fluorescence ratio was 0.994 ± 0.033.

As to GGGGAGGACT, the switch fluorescence ratio worked out at 1 ± 0.021.

Take GAGGGGTTGC: the switch fluorescence ratio was determined as 1.09 ± 0.047.

Consider TAGTTGAAGG, for which the switch fluorescence ratio turned out to be 0.9942 ± 0.0051.

Regarding GGTGGGGGGC, the switch fluorescence ratio stood at 0.978 ± 0.048.

In the case of GATAAAGTTA, the switch fluorescence ratio turned out to be 0.992 ± 0.013.

For AAACGGGGAC, the switch fluorescence ratio worked out at 1.07 ± 0.15.

Take GGGGTCAAGC: the switch fluorescence ratio amounted to 1.01 ± 0.03.

Turning to AGGTAAGGGT, the switch fluorescence ratio worked out at 0.974 ± 0.035.

With CAGGTTCTAC, the switch fluorescence ratio worked out at 1.015 ± 0.0032.

As for ATCGGGAGCC, the switch fluorescence ratio was found to be 0.959 ± 0.03.

In the case of TAAAATGTTA, the switch fluorescence ratio is 0.985 ± 0.0063.

For ACGCTTTACC, the switch fluorescence ratio is 1.89 ± 0.11.

In the case of AGCACGCACA, the switch fluorescence ratio turned out to be 1.77 ± 0.06.

Consider GAAAATGTCG, for which the switch fluorescence ratio is 0.988 ± 0.07.

As to TTTTTTCTTG, the switch fluorescence ratio turned out to be 1.02 ± 0.034.

With TATTGTGGCT, the switch fluorescence ratio is 0.9785 ± 0.0061.

TCTTTAGGGA: the switch fluorescence ratio was 1.02 ± 0.054.

For AAAGCTCTGT, the switch fluorescence ratio was determined as 0.992 ± 0.012.

AAGGAGGGGT: the switch fluorescence ratio stood at 0.9968 ± 0.0081.

As to TTTTTGGGTG, the switch fluorescence ratio came to 1.03 ± 0.058.

On to TCAGGGAGTG, for which the switch fluorescence ratio was determined as 0.9758 ± 0.0095.

Consider ATCGTATGGA, for which the switch fluorescence ratio worked out at 0.998 ± 0.013.

Turning to TATTCAACGG, the switch fluorescence ratio worked out at 1.02 ± 0.028.

As to ATACGAGGTG, the switch fluorescence ratio was determined as 1.07 ± 0.035.

As to TGGGAGTAGC, the switch fluorescence ratio stood at 0.9907 ± 0.0091.

As for TTTTCGATCT, the switch fluorescence ratio amounted to 1 ± 0.013.

Consider AGCCTGGTGG, for which the switch fluorescence ratio turned out to be 1.05 ± 0.013.

Take ATGTGGGGGT: the switch fluorescence ratio was 0.994 ± 0.029.

With GCATTAAGTG, the switch fluorescence ratio was found to be 1 ± 0.024.

With ATTGATATTT, the switch fluorescence ratio was found to be 0.998 ± 0.019.

With GGATAGGGGC, the switch fluorescence ratio amounted to 1.03 ± 0.054.

On to TTTTTTGGGA, for which the switch fluorescence ratio worked out at 1.01 ± 0.019.

Regarding GGGGGTAGTT, the switch fluorescence ratio was determined as 1 ± 0.032.

Regarding CTTTGGCGCC, the switch fluorescence ratio stood at 0.986 ± 0.014.

As to TGTAATCAAA, the switch fluorescence ratio turned out to be 1 ± 0.022.

For the sequence AAGTGGGTTA, the switch fluorescence ratio is 1.02 ± 0.032.

Take TTTGAAAGTG: the switch fluorescence ratio turned out to be 0.999 ± 0.015.

Turning to TTGAATCGGG, the switch fluorescence ratio worked out at 0.944 ± 0.035.

In the case of AGATAGGG, the switch fluorescence ratio was determined as 0.96188 ± 0.00038.

Take ATAATGTACA: the switch fluorescence ratio was found to be 1.04 ± 0.011.

Turning to TTATTTCTTG, the switch fluorescence ratio amounted to 0.994 ± 0.046.

Take TTACCACAGC: the switch fluorescence ratio was found to be 1.05 ± 0.041.

In the case of TAAAGTCCGA, the switch fluorescence ratio was 1.014 ± 0.0028.

With ACGTAATTGT, the switch fluorescence ratio stood at 1.13 ± 0.061.

For the sequence GTATTAGGGT, the switch fluorescence ratio came to 1 ± 0.041.

For the sequence TCGGGAGTCA, the switch fluorescence ratio is 1.011 ± 0.0091.

Take ATTGCCACGG: the switch fluorescence ratio is 1.033 ± 0.0089.

On to TGCTCTAAGG, for which the switch fluorescence ratio stood at 1.02 ± 0.046.

As for AGTAGAGGTT, the switch fluorescence ratio was found to be 1.008 ± 0.0064.

As for CCTTGAGGGG, the switch fluorescence ratio is 0.9925 ± 0.0036.

Regarding TAGCTTGTCA, the switch fluorescence ratio was determined as 0.9884 ± 0.0065.

TCTGTTGCAG: the switch fluorescence ratio was determined as 0.999 ± 0.024.

With AATGGTAATT, the switch fluorescence ratio was 0.995 ± 0.039.

With GAATGTCTGC, the switch fluorescence ratio came to 0.99 ± 0.037.

Regarding TTAAAGGGCG, the switch fluorescence ratio came out at 0.976 ± 0.046.

GTATAAAAGT: the switch fluorescence ratio came out at 1.01 ± 0.03.

On to GGGGTAAGAC, for which the switch fluorescence ratio stood at 1.02 ± 0.036.

For the sequence TCGTTATCTT, the switch fluorescence ratio is 0.979 ± 0.013.

Turning to TTTGTGGAGG, the switch fluorescence ratio came out at 0.999 ± 0.023.

As to ATAGGGGGTA, the switch fluorescence ratio came out at 1 ± 0.015.

For ACGTGCAGTT, the switch fluorescence ratio is 1.02 ± 0.012.

As to TATCGGGTGG, the switch fluorescence ratio stood at 1.01 ± 0.097.

As to GGGATGCTCT, the switch fluorescence ratio worked out at 1.01 ± 0.017.

Take GGATTGAGGC: the switch fluorescence ratio came to 0.968 ± 0.0046.

Turning to TACGCCGGAA, the switch fluorescence ratio is 1.33 ± 0.37.

For GGTTATATTT, the switch fluorescence ratio was found to be 1.03 ± 0.072.

As to TTAGACACAA, the switch fluorescence ratio is 1.01 ± 0.046.

As to AACGGTTGCG, the switch fluorescence ratio turned out to be 0.965 ± 0.016.

With GACGGGTATA, the switch fluorescence ratio amounted to 1.36 ± 0.47.

Consider TGAAATTAGT, for which the switch fluorescence ratio amounted to 1.01 ± 0.013.

On to TAAAGCGTAG, for which the switch fluorescence ratio came to 0.998 ± 0.027.

With AACGGCAGGG, the switch fluorescence ratio was 1 ± 0.024.

Turning to GAATGAAGGT, the switch fluorescence ratio was 0.985 ± 0.013.

For the sequence TCCTTTGTAT, the switch fluorescence ratio was found to be 1.1 ± 0.015.

As for ACTGTCTAAT, the switch fluorescence ratio was 1.01 ± 0.026.
